# Results taken from patent publication US20220257704A1, “COMBINATION OF CHEMOTHERAPY WITH RECOMBINANT S. ROLFSII LECTIN” (Unichem Laboratories Ltd, priority 2018, published 2022).
# Where “and” joins values, the source holds several entries; their conditions need not be identical. Equal entries are not always repeated.
# B1: SEQ ID NO: 1: recombinant lectin protein, variant of the S. rolfsii lectin amino acid sequence (reported as Rec-2 in WO 2010/095143) (protein)
# chain: TYKITVRVYQTNPDAFFHPVEKTVWKYANGGTWTITDDQHVLTMGGSGTSGTLRFHADNGESFTATFGVHNYKRWCDIVTNLAADETGMVINQQYYSQKNREEARERQLSNYQVKNAKGRNFQIVYTEAEGNDLHANLIIG
# Experiments:
# Assay in all cases: MTT cytotoxicity assay, 48 h, alone and in combination (IC50 and Combination Index)
# Assay type in all cases: cell-based
# PANC-1 cell line = system: PANC-1 cell line
# Method: The cytotoxic effect on each combination was determined by MTT assay.
# (§1) Combination Index (CI) values were determined for each drug concentration combination. The CI values were calculated based on the IC50 values using the formula as given in below.
# HT-29 cell line = system: HT-29 cell line
# KB cell line = system: KB cell line
# Method: A study was performed to determine the effect of the concentration of the recombinant lectin represented by SEQ ID NO: 1 on the IC50 of5-FU for cytotoxicity in KB cells.
# Similarly another study was performed for Cisplatin in combination with the recombinant lectin of SEQ ID NO: 1.
# Similarly another set of cells were treated with Cisplatin(0.1 μM to 1.5 μM)in combination with SEQ ID NO: 1(5.0 μg/mL-90 μg/mL).
# T24 cell line = system: T24 cell line
# Method: (§2) The cell were kept in contact with the recombinant lectin of SEQ ID NO: 1 and the chemotherapy agent for 48 h and the cytotoxic effect (percentage cytotoxicity) was measured. The cytotoxic effect was determined by well-known colorimetric MTT assay (Mossman, T. 1983 Rapid colorimetric assay for cellular growth and survival: application to proliferation and cytotoxicity assays Journal of Immunological Methods, volume 65, pages 55-63) for assessing cell metabolic activity.
# (§3) Based on percentage cytotoxicity data, IC50 values were determined using the software GraphPad Prism version 4.01.
# as §1
# (§4) A study was performed to determine the effect of the concentration of the recombinant lectin represented by SEQ ID NO: 1 on the IC50 of Cisplatin for cytotoxicity in T24 cells. Conversely the effect of the concentration of Cisplatin on the IC50 of the recombinant lectin represented by SEQ ID NO: 1.
# Similarly another study was performed for Gemcitabine in combination with the recombinant lectin of SEQ ID NO: 1.
# This was performed using the same techniques as in Example 1-1.
# In a further study, T24 cells were treated with Cisplatin (1 μM-500 μM) in combination with SEQ ID NO: 1(2.5 μg/mL-80 μg/mL) for 48 h. Similarly another set of cells were treated with Gemcitabine (1 μM-300 μM) in combination with SEQ ID NO: 1 (2.5 μg/mL-80 μg/mL). Combination Index values were determined for each drug combination and resultant antagonistic, additive or synergistic effect was determined, as described in Example 1-2.
# PA-1 cell line = system: PA-1 cell line
# Method: In a further study, PA-1 cells were treated with Cisplatin(0.01 μM-5 μM) in combination with SEQ ID NO: 1(1 μg/mL-20 μg/mL) for 48 h. Similarly another set of cells were treated with Paclitaxel (0.01 nM-5 nM) in combination with SEQ ID NO: 1 (1 μg/mL-20 μg/mL).
# MDA-MB-231 cell line = system: MDA-MB-231 cell line
# Method: as §2, §3, §1
# as §4, with “Paclitaxel” for “Cisplatin”, “MDA-MB-231” for “T24”
# Similarly another study was performed for Carboplatin in combination with the recombinant lectin of SEQ ID NO: 1.
# In a further study, MDA-MB-231 cells were treated with Paclitaxel (0.001 nM-10 nM) in combination with SEQ ID NO: 1(2.5 μg/mL-80 μg/mL) for 48 h. Similarly another set of cells were treated with Carboplatin (10 μM-1000 μM) in combination with SEQ ID NO: 1 (2.5 μg/mL-80 μg/mL).
# [1] = in combination with 5-FU, paired with 5-FU conc. of the same table row
# [2] = in combination with Cisplatin, paired with Cisplatin conc. of the same table row
# [3] = in combination with Paclitaxel, paired with Paclitaxel conc. of the same table row
molecule,measurement,setting,value
B1,IC50 of SEQ ID NO: 1,PANC-1 cell line; 5-FU 0 μM,24.630 µg/mL
same,IC50 of SEQ ID NO: 1,PANC-1 cell line; 5-FU 0.1 μM,686.900 µg/mL
same,IC50 of SEQ ID NO: 1,PANC-1 cell line; 5-FU 1 μM,22.490 µg/mL
same,IC50 of SEQ ID NO: 1,PANC-1 cell line; 5-FU 10 μM,6.842 µg/mL
same,IC50 of SEQ ID NO: 1,PANC-1 cell line; 5-FU 50 μM,1.690 µg/mL
same,IC50 of SEQ ID NO: 1,PANC-1 cell line; 5-FU 100 μM,1.070 µg/mL
same,IC50 of SEQ ID NO: 1,PANC-1 cell line; 5-FU […] μM,0.098 µg/mL
same,IC50 of SEQ ID NO: 1,PANC-1 cell line; Gemcitabine 0 μM,25.060 µg/mL
same,IC50 of SEQ ID NO: 1,PANC-1 cell line; Gemcitabine 0.01 μM,55.490 µg/mL
same,IC50 of SEQ ID NO: 1,PANC-1 cell line; Gemcitabine 0.1 μM,19.450 µg/mL
same,IC50 of SEQ ID NO: 1,PANC-1 cell line; Gemcitabine 1 μM,14.130 µg/mL
same,IC50 of SEQ ID NO: 1,PANC-1 cell line; Gemcitabine 5 μM,12.230 µg/mL
same,IC50 of SEQ ID NO: 1,PANC-1 cell line; Gemcitabine 25 μM,2.044 µg/mL
same,IC50 of SEQ ID NO: 1,PANC-1 cell line; Gemcitabine 50 μM,0.917 µg/mL
same,Conc. of SEQ ID NO: 1 showing synergistic effect,PANC-1 cell line; [1],5 µg/mL and 10 to 80 µg/mL
same,IC50 of SEQ ID NO: 1,HT-29 cell line; 5-FU 0 μM,25.470 µg/mL
same,IC50 of SEQ ID NO: 1,HT-29 cell line; 5-FU 5 μM,22.990 µg/mL
same,IC50 of SEQ ID NO: 1,HT-29 cell line; 5-FU 10 μM,6.374 µg/mL
same,IC50 of SEQ ID NO: 1,HT-29 cell line; 5-FU 50 μM,1.667 µg/mL
same,IC50 of SEQ ID NO: 1,HT-29 cell line; 5-FU 100 μM,1.387 µg/mL
same,IC50 of SEQ ID NO: 1,HT-29 cell line; 5-FU 150 μM,1.216 µg/mL
same,IC50 of SEQ ID NO: 1,HT-29 cell line; 5-FU 200 μM,1.334 µg/mL
same,IC50 of SEQ ID NO: 1,HT-29 cell line; Irinotecan 0 μM,18.320 µg/mL
same,IC50 of SEQ ID NO: 1,HT-29 cell line; Irinotecan 0.1 μM,73.480 µg/mL
same,IC50 of SEQ ID NO: 1,HT-29 cell line; Irinotecan 1 μM,36.280 µg/mL
same,IC50 of SEQ ID NO: 1,HT-29 cell line; Irinotecan 5 μM,23.520 µg/mL
same,IC50 of SEQ ID NO: 1,HT-29 cell line; Irinotecan 10 μM,9.995 µg/mL
same,IC50 of SEQ ID NO: 1,HT-29 cell line; Irinotecan 25 μM,8.258 µg/mL
same,IC50 of SEQ ID NO: 1,HT-29 cell line; Irinotecan 50 μM,1.395 µg/mL
same,Conc. of SEQ ID NO: 1 showing synergistic effect,"HT-29 cell line; in combination with Irinotecan, paired with Irinotecan conc. of the same table row",40 to 80 µg/mL and 20 µg/mL
same,IC50 of SEQ ID NO: 1,KB cell line; 5-FU 0 μM,17.3800 µg/mL
same,IC50 of SEQ ID NO: 1,KB cell line; 5-FU 0.01 μM,0.5800 µg/mL
same,IC50 of SEQ ID NO: 1,KB cell line; 5-FU 0.1 μM,0.9080 µg/mL
same,IC50 of SEQ ID NO: 1,KB cell line; 5-FU 0.5 μM,0.1141 µg/mL
same,IC50 of SEQ ID NO: 1,KB cell line; 5-FU 1 μM,0.0555 µg/mL
same,IC50 of SEQ ID NO: 1,KB cell line; 5-FU 5 μM,0.0871 µg/mL
same,IC50 of SEQ ID NO: 1,KB cell line; 5-FU […],0.5010 µg/mL
same,IC50 of SEQ ID NO: 1,KB cell line; Cisplatin 0 μM,38.110 µg/mL
same,IC50 of SEQ ID NO: 1,KB cell line; Cisplatin 0.1 μM,21.190 µg/mL
same,IC50 of SEQ ID NO: 1,KB cell line; Cisplatin 0.5 μM,2.694 µg/mL
same,IC50 of SEQ ID NO: 1,KB cell line; Cisplatin 0.75 μM,0.597 µg/mL
same,IC50 of SEQ ID NO: 1,KB cell line; Cisplatin 1.0 μM,0.316 µg/mL
same,IC50 of SEQ ID NO: 1,KB cell line; Cisplatin 1.5 μM,0.303 µg/mL
same,IC50 of SEQ ID NO: 1,KB cell line; Cisplatin […],11.240 µg/mL
same,Conc. of SEQ ID NO: 1 showing synergistic effect,KB cell line; [1],5 to 90 µg/mL
same,Conc. of SEQ ID NO: 1 showing synergistic effect,KB cell line; [2],10 to 90 µg/mL and 5 µg/mL
same,IC50 of SEQ ID NO: 1,T24 cell line; Cisplatin 0 μM,11.470 µg/mL
same,IC50 of SEQ ID NO: 1,T24 cell line; Cisplatin 1 μM,11.460 µg/mL
same,IC50 of SEQ ID NO: 1,T24 cell line; Cisplatin 10 μM,2.375 µg/mL
same,IC50 of SEQ ID NO: 1,T24 cell line; Cisplatin 25 μM,1.062 µg/mL
same,IC50 of SEQ ID NO: 1,T24 cell line; Cisplatin 50 μM,1.081 µg/mL
same,IC50 of SEQ ID NO: 1,T24 cell line; Cisplatin 100 μM,0.944 µg/mL
same,IC50 of SEQ ID NO: 1,T24 cell line; Cisplatin 500 μM,0.716 µg/mL
same,IC50 of SEQ ID NO: 1,T24 cell line; Gemcitabine 0 μM,10.350 µg/mL
same,IC50 of SEQ ID NO: 1,T24 cell line; Gemcitabine 1 μM,2.242 µg/mL
same,IC50 of SEQ ID NO: 1,T24 cell line; Gemcitabine 10 μM,0.892 µg/mL
same,IC50 of SEQ ID NO: 1,T24 cell line; Gemcitabine 50 μM,0.626 µg/mL
same,IC50 of SEQ ID NO: 1,T24 cell line; Gemcitabine 100 μM,0.155 µg/mL
same,IC50 of SEQ ID NO: 1,T24 cell line; Gemcitabine 200 μM,0.149 µg/mL
same,IC50 of SEQ ID NO: 1,T24 cell line; Gemcitabine 300 μM,0.029 µg/mL
same,Conc. of SEQ ID NO: 1 showing synergistic effect,T24 cell line; [2],5 to 80 µg/mL
same,Conc. of SEQ ID NO: 1 showing synergistic effect,"T24 cell line; in combination with Gemcitabine, paired with Gemcitabine conc. of the same table row",2.5 to 80 µg/mL
same,IC50 of SEQ ID NO: 1,PA-1 cell line; Cisplatin 0 μM,12.070 µg/mL
same,IC50 of SEQ ID NO: 1,PA-1 cell line; Cisplatin 0.01 μM,8.520 µg/mL
same,IC50 of SEQ ID NO: 1,PA-1 cell line; Cisplatin 0.1 μM,6.033 µg/mL
same,IC50 of SEQ ID NO: 1,PA-1 cell line; Cisplatin 0.5 μM,0.912 µg/mL
same,IC50 of SEQ ID NO: 1,PA-1 cell line; Cisplatin 1 μM,0.321 µg/mL
same,IC50 of SEQ ID NO: 1,PA-1 cell line; Cisplatin 5 μM,0.0036 µg/mL
same,IC50 of SEQ ID NO: 1,PA-1 cell line; Cisplatin […],4.455 µg/mL
same,IC50 of SEQ ID NO: 1,PA-1 cell line; Paclitaxel 0 nM,8.822 µg/mL
same,IC50 of SEQ ID NO: 1,PA-1 cell line; Paclitaxel 0.01 nM,5.794 µg/mL
same,IC50 of SEQ ID NO: 1,PA-1 cell line; Paclitaxel 0.1 nM,6.545 µg/mL
same,IC50 of SEQ ID NO: 1,PA-1 cell line; Paclitaxel 0.5 nM,3.917 µg/mL
same,IC50 of SEQ ID NO: 1,PA-1 cell line; Paclitaxel 1 nM,3.031 µg/mL
same,IC50 of SEQ ID NO: 1,PA-1 cell line; Paclitaxel 5 nM,0.709 µg/mL
same,IC50 of SEQ ID NO: 1,PA-1 cell line; Paclitaxel […],4.893 µg/mL
same,Conc. of SEQ ID NO: 1 showing synergistic effect,PA-1 cell line; [3],1 to 20 µg/mL
same,IC50 of SEQ ID NO: 1,MDA-MB-231 cell line; Carboplatin 0 μM,14.310 µg/mL
same,IC50 of SEQ ID NO: 1,MDA-MB-231 cell line; Carboplatin 10 μM,7.188 µg/mL
same,IC50 of SEQ ID NO: 1,MDA-MB-231 cell line; Carboplatin 50 μM,3.584 µg/mL
same,IC50 of SEQ ID NO: 1,MDA-MB-231 cell line; Carboplatin 100 μM,4.290 µg/mL
same,IC50 of SEQ ID NO: 1,MDA-MB-231 cell line; Carboplatin 200 μM,2.073 µg/mL
same,IC50 of SEQ ID NO: 1,MDA-MB-231 cell line; Carboplatin 500 μM,0.523 µg/mL
same,IC50 of SEQ ID NO: 1,MDA-MB-231 cell line; Carboplatin 1000 μM,0.044 µg/mL
same,IC50 of SEQ ID NO: 1,MDA-MB-231 cell line; Paclitaxel 0 nM,19.800 µg/mL
same,IC50 of SEQ ID NO: 1,MDA-MB-231 cell line; Paclitaxel 0.001 nM,25.370 µg/mL
same,IC50 of SEQ ID NO: 1,MDA-MB-231 cell line; Paclitaxel 0.01 nM,21.220 µg/mL
same,IC50 of SEQ ID NO: 1,MDA-MB-231 cell line; Paclitaxel 0.1 nM,13.700 µg/mL
same,IC50 of SEQ ID NO: 1,MDA-MB-231 cell line; Paclitaxel 1 nM,8.720 µg/mL
same,IC50 of SEQ ID NO: 1,MDA-MB-231 cell line; Paclitaxel 5 nM,5.775 µg/mL
same,IC50 of SEQ ID NO: 1,MDA-MB-231 cell line; Paclitaxel 10 nM,2.248 µg/mL
same,Conc. of SEQ ID NO: 1 showing synergistic effect,"MDA-MB-231 cell line; in combination with Carboplatin, paired with Carboplatin conc. of the same table row",5 to 80 µg/mL and 2.5 µg/mL
same,Conc. of SEQ ID NO: 1 showing synergistic effect,MDA-MB-231 cell line; [3],20 to 80 µg/mL and 10 µg/mL
